The values below come from patent publication US5972599.

Series [1] deals with TNF-alpha (Homo sapiens) (UniProt P01375). The series is described as follows: filter.
For series [2], the target named is T1, TNF-alpha (Mus musculus) (UniProt P06804).
T1 sequence: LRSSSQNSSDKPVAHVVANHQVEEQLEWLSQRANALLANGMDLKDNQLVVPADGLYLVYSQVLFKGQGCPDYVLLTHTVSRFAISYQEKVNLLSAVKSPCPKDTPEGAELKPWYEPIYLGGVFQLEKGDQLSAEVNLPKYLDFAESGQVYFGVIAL
The series is described as follows: filter. Particulars: specificity control.

The target of series [3] is T2, TNF-beta (Homo sapiens) (UniProt P01374).
T2 sequence: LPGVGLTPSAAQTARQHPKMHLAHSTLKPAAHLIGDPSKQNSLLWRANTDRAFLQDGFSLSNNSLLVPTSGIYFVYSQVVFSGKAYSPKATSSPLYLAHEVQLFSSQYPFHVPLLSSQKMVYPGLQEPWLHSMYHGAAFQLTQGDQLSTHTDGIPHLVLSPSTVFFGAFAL
The series is described as follows: filter. The settings on record: specificity control.

Series [4] deals with T3, IFN-gamma (Homo sapiens) (UniProt P01579).
T3 sequence: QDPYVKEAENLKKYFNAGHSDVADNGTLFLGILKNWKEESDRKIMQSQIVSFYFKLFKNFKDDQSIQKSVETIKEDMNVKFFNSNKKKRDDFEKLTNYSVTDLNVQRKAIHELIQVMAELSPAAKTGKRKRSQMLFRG
The series is described as follows: filter.

For series [5], the target named is T4, IFN-gamma (Mus musculus) (UniProt P01580).
T4 sequence: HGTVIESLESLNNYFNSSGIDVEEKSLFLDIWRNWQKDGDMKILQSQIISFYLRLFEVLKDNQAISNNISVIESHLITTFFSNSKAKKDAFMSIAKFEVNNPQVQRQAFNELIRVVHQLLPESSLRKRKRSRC
The series is described as follows: filter. The settings on record: mouse protein.

Series [6] addresses T5, RANTES (Homo sapiens) (UniProt P13501).
T5 sequence: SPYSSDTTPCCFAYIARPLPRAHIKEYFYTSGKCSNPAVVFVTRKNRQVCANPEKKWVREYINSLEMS
The series is described as follows: filter.

The target of series [7] is TNF-alpha (Homo sapiens) (UniProt P01375). The series is described as follows: competition. Particulars: random RNA control, U937 cells.
The target of series [8] is T6, IL-4 (Homo sapiens) (UniProt P05112).
T6 sequence: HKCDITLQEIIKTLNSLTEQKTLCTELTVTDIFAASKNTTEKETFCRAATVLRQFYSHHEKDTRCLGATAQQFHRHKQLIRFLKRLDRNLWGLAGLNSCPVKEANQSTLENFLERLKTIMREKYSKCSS
The series is described as follows: filter.

The mark [9] stands for this setting: 2'-F all C, 2'-NH2 all U, round 17 pool.
[10] abbreviates: 2'-F all C and U, round 17 pool.
Setting [11] is: 2'-F all C, 2'-NH2 all U, random pool.
Setting [12] is: 2'-NH2 all C and U, random pool.

Chain of TNF-alpha (Homo sapiens) (P01375 77-233): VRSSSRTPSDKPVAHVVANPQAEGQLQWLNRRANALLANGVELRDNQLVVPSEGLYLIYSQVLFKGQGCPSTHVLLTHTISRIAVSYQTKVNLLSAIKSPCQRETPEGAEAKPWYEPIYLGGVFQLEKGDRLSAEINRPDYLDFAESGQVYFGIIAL

As for “GGGAGCUCAGAAUAAACGCUCAANNNNNNNNNNNNNNNNNNNNNNNNNNNNNNUUCGACAUGAGGCCCGGAUCCGGC [TNF round 23 A-SELEX pool]”, the Kd (commonly the concentration at which binding is half-saturated) in series [1] (round 23A pool) was 0.7 µM; in series [2], > 1000 µM; in series [3] it was > 1000 µM. Consider “GGGAGGACGAUGCGGNNNNNNNNNNNNNNNNNNNNNNNNNNNNNNNNNNNNNNNNCAGACGACUCGCCCGA [40N7 random pool 2'F]”, for which the Kd in series [4] (2'-F all C and U, random pool) is > 0.7 µM.

As for “GGGAGCUCAGAAUAAACGCUCAANNNNNNNNNNNNNNNNNNNNNNNNNNNNNNUUCGACAUGAGGCCCGGAUCCGGC [TNF round 6 C-SELEX pool]”, the dissociation constant (Kd) in series [1] (C-SELEX final pool) worked out at 0.4 µM. As for “GGGAGGACGAUGCGGNNNNNNNNNNNNNNNNNNNNNNNNNNNNNNNNNNNNNNNNCAGACGACUCGCCCGA [IFN-gamma round 17 pool 2'F/NH2]”, the Kd in series [4] (setting [9]) amounted to 0.115 µM; in series [5] (2'-F all C, 2'-NH2 all U) it was 0.175 µM. Sequence “GGGAGGACGATGCGGNNNNNNNNNNNNNNNNNNNNNNNNNNNNNNNNNNNNNNNNCAGACGACTCGCCCGA [RANTES round 19 ssDNA pool]” had a Kd in series [6] (round 19, 150 mM NaCl, text says 20 nM) of 0.018 µM. Turning to “GGGAGCUCAGAAUAAACGCUCAANNNNNNNNNNNNNNNNNNNNNNNNNNNNNNUUCGACAUGAGGCCCGGAUCCGGC [TNF random RNA]”, the Kd in series [1] (estimated, flat curves up to 10 uM protein) is > 1000 µM. For the same sequence, the Ki (in general, a measure of affinity in units of concentration, obtained from inhibition or displacement) in series [7] is > 1000 µM.

For the sequence “GGGAGGACGATGCGGNNNNNNNNNNNNNNNNNNNNNNNNNNNNNNNNNNNNNNNNCAGACGACTCGCCCGA [RANTES random ssDNA pool 40N7]”, the Kd in series [6] (starting pool, 150 mM NaCl) was 3 µM. On to “GGGAGGACGAUGCGGNNNNNNNNNNNNNNNNNNNNNNNNNNNNNNNNNNNNNNNNCAGACGACUCGCCCGA [IFN-gamma round 17 pool 2'F]”, for which the Kd in series [4] (setting [10]) was 0.07 µM; in series [5] (2'-F all C and U) it was 0.41 µM. Regarding “GGGAGACAAGAAUAAACGCUCAANNNNNNNNNNNNNNNNNNNNNNNNNNNNNNNNNNNNNNNNUUCGACAGGAGGCUCACAACAGGC [IL-4 round 17 pool 2'F/NH2]”, in series [8] (setting [9]), the Kd was found to be 0.055 µM. In series [8] (2'-NH2 all C and U, round 17 pool, high filter background, earlier round about 100 nM), “GGGAGACAAGAAUAAACGCUCAANNNNNNNNNNNNNNNNNNNNNNNNNNNNNNNNNNNNNNNNUUCGACAGGAGGCUCACAACAGGC [IL-4 round 17 pool 2'NH2]” came in with a Kd of 1 µM. In turn, “GGGAGACAAGAAUAAACGCUCAANNNNNNNNNNNNNNNNNNNNNNNNNNNNNNNNNNNNNNNNUUCGACAGGAGGCUCACAACAGGC [IL-4 round 17 pool 2'F]” showed a Kd in series [8] (setting [10]) of 0.03 µM. As for “GGGAGACAAGAAUAAACGCUCAANNNNNNNNNNNNNNNNNNNNNNNNNNNNNNNNNNNNNNNNUUCGACAGGAGGCUCACAACAGGC [40N8 random pool 2'F]”, the Kd in series [8] (2'-F all C and U, random pool) is > 20 µM. “GGGAGGACGAUGCGGNNNNNNNNNNNNNNNNNNNNNNNNNNNNNNNNNNNNNNNNCAGACGACUCGCCCGA [40N7 random pool 2'F/NH2]”: the Kd in series [4] (setting [11]) was > 0.7 µM. Consider “GGGAGGACGAUGCGGNNNNNNNNNNNNNNNNNNNNNNNNNNNNNNNNNNNNNNNNCAGACGACUCGCCCGA [40N7 random pool 2'NH2]”, for which, in series [4] (setting [12]), the Kd is > 0.7 µM. With “GGGAGACAAGAAUAAACGCUCAANNNNNNNNNNNNNNNNNNNNNNNNNNNNNNNNNNNNNNNNUUCGACAGGAGGCUCACAACAGGC [40N8 random pool 2'F/NH2]”, the Kd in series [8] (setting [11]) was > 20 µM. Consider “GGGAGACAAGAAUAAACGCUCAANNNNNNNNNNNNNNNNNNNNNNNNNNNNNNNNNNNNNNNNUUCGACAGGAGGCUCACAACAGGC [40N8 random pool 2'NH2]”, for which the Kd in series [8] (setting [12]) was > 20 µM. With “GGGAGGACGAUGCGGNNNNNNNNNNNNNNNNNNNNNNNNNNNNNNNNNNNNNNNNCAGACGACUCGCCCGA [IFN-gamma round 17 pool 2'NH2]”, the equilibrium dissociation constant (Kd) came to 0.02 µM in series [4] (2'-NH2 all C and U, round 17 pool); 0.085 µM in series [5] (2'-NH2 all C and U).
